Test results: patent publication US20190330346A1 (REMD BIOTHERAPEUTICS, published 2019)

Experiments:
[1] = molecular target: T1, His-tagged human PD-1 protein (human, UniProt Q15116 25-170, limits assumed); test: SPR; Fab-SASA captured on immobilised BSA, his-tagged PD-1 as analyte
T1 construct: SPR analyte; also called his-tagged antigen PD-1; not shown: His tag
Protocol: For affinity ranking, BSA was immobilized onto the sensor chip using amine coupling method. The selected Fab-SASA secreted to the culture medium was injected and captured by BSA through the tight binding between BSA and SASA (capture phase). After equilibration, his-tagged antigen PD-1 was injected for 300 seconds (association phase) followed by the injection of running buffer for 900 seconds (dissociation phase). The surface was regenerated before the injection of another three Fab-SASA clones. The process was repeated until all selected Fab-SASA proteins were analyzed. Responses of reference flow cell were subtracted from those of Fab-SASA flow cells during each cycle. The antibodies were ranked by their dissociation rate constants (off-rates, […]). […]

[2] = molecular target: T2, human PD-1 (human, UniProt Q15116 25-167); test: SPR, multiple-cycle, crude Fab from E. coli; antigen form not stated
T2 construct: The immunogen was PD1/Fc (Leu25-Gln167 fused to human IgG1 Pro100-Lys330); also called huPD-1; hPD-1
Excerpt: A homology model of mouse anti-PD1 Fv was built wherein putative back mutation sites (i.e., buried residues of the frameworks that are different in the mouse and human acceptor sequences) were identified. There were a total of 14 putative back mutation sites. A variant humanized Fab comprising all 14 of the putative back mutation sites of PD1-grafted Ab mutated back to their mouse counterparts (hereinafter identified as “PD1-BM Ab”) comprising the heavy chain variable region sequence set forth in SEQ ID NO: 38 and the light chain variable region sequence set forth in SEQ ID NO: 39, was synthesized. In addition, 14 variants of PD1-BM Ab (hereinafter identified as Fabs 1-14), each having at least one of the putative 14 back mutation sites in PD1-BM Ab mutated back to the human counterpart, were synthesized. These constructs were used to transform E. coli TG1 strain. Single colonies were pick for each individual construct and grown in E. coli medium. Crude chimeric and humanized Fabs were collected and subjected to multiple-cycle affinity estimation by Surface Plasmon Resonance (SPR).

T2 sequence (Q15116 25-167 limits assumed): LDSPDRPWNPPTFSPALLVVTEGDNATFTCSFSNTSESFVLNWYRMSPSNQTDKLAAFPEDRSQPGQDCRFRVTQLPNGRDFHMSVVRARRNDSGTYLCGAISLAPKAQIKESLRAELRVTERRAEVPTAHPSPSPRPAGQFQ
T1 sequence (Q15116 25-170 limits assumed): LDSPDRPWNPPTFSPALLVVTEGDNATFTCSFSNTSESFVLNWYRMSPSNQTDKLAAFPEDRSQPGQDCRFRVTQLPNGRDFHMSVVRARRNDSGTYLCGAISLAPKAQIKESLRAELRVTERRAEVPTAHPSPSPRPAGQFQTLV

Binder | Kd [1] [nM] | koff [1] [s⁻¹] | kon [1] [M⁻¹ s⁻¹] | Kd [2] [nM] | koff [2] [s⁻¹] | kon [2] [M⁻¹ s⁻¹]
AS05616 (Fab, V domains shown, Humanized Fab-SASA clone from the phage library) VH: EVQLVESGGGLVQPGGSLRLSCAASGFVFSRYDMAWVRQTPGKGLEWVSFISGGGSNTYYPDTVKGRFTISRDNSKNTLYLQMNSLRAEDTAVYYCISPYYYAMEYWGQGTTVTVSS VL: DIQMTQSPSSISTSVGDRVTITCKASQDVDTAVAWYQQKPGKSPKLLIHWASTRHTGVPSRFSGSGSGTDFTLTISSLQPEDFADYFCQQYSTFPWTFGGGTKVEIK | 0.311 | 0.000105 | 336000 |  |  | 
AS05614 (Fab, V domains shown, Humanized Fab-SASA clone from the phage library) VH: EVQLVESGGGLVQPGGSLRLSCAASGFVFSRYDMAWVRQTPGKGLEWVSFISGGGSNTYYPDTVKGRFTISRDNSKNTLYLQMNSLRAEDTAVYYCISPYYYAMEYWGQGTTVTVSS VL: DIQMTQSPSSISTSVGDRVTITCKASQDVDTAVAWYQQKPGKSPKLLIHWASTRHTGVPSRFSGSGSGTDFTLTLSSVQPEDFATYFCQQYSTFPWTFGGGTKVEIK | 0.37 | 0.000134 | 363000 |  |  | 
AS05617 (Fab) (Fab, V domains shown, Humanized Fab-SASA clone from the phage library) VH: EVQLVESGGGLVQPGGSLRLSCAASGFVFSRYDMAWVRQTPGKGLEWVSFISGGGSNTYYPDTVKGRFTISRDNSKNTLYLQMNSLRAEDTAVYYCISPYYYAMEYWGQGTTVTVSS VL: DIQMTQSPSSISTSVGDRVTITCKASQDVDTAVAWYQQKPGKSPKLLIYWASTRHTGVPSRFSGSGSGTDFTLTISSLQPEDFADYFCQQYSTFPWTFGGGTKVEIK | 0.0854 | 3e-05 | 351000 |  |  | 
AS05618 (Fab, V domains shown, Humanized Fab-SASA clone from the phage library) VH: EVQLVESGGGLVQPGGSLRLSCAASGFVFSRYDMAWVRQTPGKGLEWVSFISGGGSNTYYPDTVKGRFTISRDNSKNTLYLQMNSLRAEDTAVYYCISPYYYAMEYWGQGTTVTVSS VL: DIQMTQSPSSISTSVGDRVTITCKASQDVDTAVAWYQQKPGKSPKLLIHWASTRHTGVPSRFSGSGSGTDFTLTISSLQPEDFADYFCQQYSTFPWTFGGGTKLEIK | 0.41 | 0.000151 | 369000 |  |  | 
Fab 1 (Fab, V domains shown, Crude Fab from E. coli; also called PD1-BM VH-T40A) VH: EVQLVESGGGLVQPGGSLRLSCAASGFVFSRYDMAWVRQAPGKGLEWVAFISGGGSNTYYPDTVKGRFTISRDNSKNTLYLQMNSLRAEDTAVYYCISPYYYAMEYWGQGTTVTVSS VL: DIQMTQSPSSISTSVGDRVTITCKASQDVDTAVAWYQQKPGKSPKLLIHWASTRHTGVPSRFSGSGSGTDFTLTLSSVQPEDLADYFCQQYSTFPWTFGGGTKLEIK |  |  |  | 0.32 | 9.8e-05 | 310000
Fab 3 (Fab, V domains shown, Crude Fab from E. coli; also called PD1-BM VH-I97A) VH: EVQLVESGGGLVQPGGSLRLSCAASGFVFSRYDMAWVRQTPGKGLEWVAFISGGGSNTYYPDTVKGRFTISRDNSKNTLYLQMNSLRAEDTAVYYCASPYYYAMEYWGQGTTVTVSS VL: DIQMTQSPSSISTSVGDRVTITCKASQDVDTAVAWYQQKPGKSPKLLIHWASTRHTGVPSRFSGSGSGTDFTLTLSSVQPEDLADYFCQQYSTFPWTFGGGTKLEIK |  |  |  | 1.1 | 0.00035 | 320000
Fab 5 (Fab, V domains shown, Crude Fab from E. coli; also called PD1-BM VL-I11V) VH: EVQLVESGGGLVQPGGSLRLSCAASGFVFSRYDMAWVRQTPGKGLEWVAFISGGGSNTYYPDTVKGRFTISRDNSKNTLYLQMNSLRAEDTAVYYCISPYYYAMEYWGQGTTVTVSS VL: DIQMTQSPSSVSTSVGDRVTITCKASQDVDTAVAWYQQKPGKSPKLLIHWASTRHTGVPSRFSGSGSGTDFTLTLSSVQPEDLADYFCQQYSTFPWTFGGGTKLEIK |  |  |  | 0.34 | 0.00013 | 370000
Fab 6 (Fab, V domains shown, Crude Fab from E. coli; also called PD1-BM VL-T13A) VH: EVQLVESGGGLVQPGGSLRLSCAASGFVFSRYDMAWVRQTPGKGLEWVAFISGGGSNTYYPDTVKGRFTISRDNSKNTLYLQMNSLRAEDTAVYYCISPYYYAMEYWGQGTTVTVSS VL: DIQMTQSPSSISASVGDRVTITCKASQDVDTAVAWYQQKPGKSPKLLIHWASTRHTGVPSRFSGSGSGTDFTLTLSSVQPEDLADYFCQQYSTFPWTFGGGTKLEIK |  |  |  | 0.25 | 9.6e-05 | 380000
Fab 7 (Fab, V domains shown, Crude Fab from E. coli; also called PD1-BM VL-S43A) VH: EVQLVESGGGLVQPGGSLRLSCAASGFVFSRYDMAWVRQTPGKGLEWVAFISGGGSNTYYPDTVKGRFTISRDNSKNTLYLQMNSLRAEDTAVYYCISPYYYAMEYWGQGTTVTVSS VL: DIQMTQSPSSISTSVGDRVTITCKASQDVDTAVAWYQQKPGKAPKLLIHWASTRHTGVPSRFSGSGSGTDFTLTLSSVQPEDLADYFCQQYSTFPWTFGGGTKLEIK |  |  |  | 0.59 | 0.00016 | 270000
Fab 8 (Fab, V domains shown, Crude Fab from E. coli; also called PD1-BM VL-H49Y) VH: EVQLVESGGGLVQPGGSLRLSCAASGFVFSRYDMAWVRQTPGKGLEWVAFISGGGSNTYYPDTVKGRFTISRDNSKNTLYLQMNSLRAEDTAVYYCISPYYYAMEYWGQGTTVTVSS VL: DIQMTQSPSSISTSVGDRVTITCKASQDVDTAVAWYQQKPGKSPKLLIYWASTRHTGVPSRFSGSGSGTDFTLTLSSVQPEDLADYFCQQYSTFPWTFGGGTKLEIK |  |  |  | 0.57 | 0.00019 | 340000
Fab 9 (Fab, V domains shown, Crude Fab from E. coli; also called PD1-BM VL-L75I) VH: EVQLVESGGGLVQPGGSLRLSCAASGFVFSRYDMAWVRQTPGKGLEWVAFISGGGSNTYYPDTVKGRFTISRDNSKNTLYLQMNSLRAEDTAVYYCISPYYYAMEYWGQGTTVTVSS VL: DIQMTQSPSSISTSVGDRVTITCKASQDVDTAVAWYQQKPGKSPKLLIHWASTRHTGVPSRFSGSGSGTDFTLTISSVQPEDLADYFCQQYSTFPWTFGGGTKLEIK |  |  |  | 0.24 | 8e-05 | 330000
Fab 10 (Fab, V domains shown, Crude Fab from E. coli; also called PD1-BM VL-V78L) VH: EVQLVESGGGLVQPGGSLRLSCAASGFVFSRYDMAWVRQTPGKGLEWVAFISGGGSNTYYPDTVKGRFTISRDNSKNTLYLQMNSLRAEDTAVYYCISPYYYAMEYWGQGTTVTVSS VL: DIQMTQSPSSISTSVGDRVTITCKASQDVDTAVAWYQQKPGKSPKLLIHWASTRHTGVPSRFSGSGSGTDFTLTLSSLQPEDLADYFCQQYSTFPWTFGGGTKLEIK |  |  |  | 0.29 | 9.1e-05 | 320000
Fab 11 (Fab, V domains shown, Crude Fab from E. coli; also called PD1-BM VL-L83F) VH: EVQLVESGGGLVQPGGSLRLSCAASGFVFSRYDMAWVRQTPGKGLEWVAFISGGGSNTYYPDTVKGRFTISRDNSKNTLYLQMNSLRAEDTAVYYCISPYYYAMEYWGQGTTVTVSS VL: DIQMTQSPSSISTSVGDRVTITCKASQDVDTAVAWYQQKPGKSPKLLIHWASTRHTGVPSRFSGSGSGTDFTLTLSSVQPEDFADYFCQQYSTFPWTFGGGTKLEIK |  |  |  | 0.72 | 0.00022 | 300000
Fab 12 (Fab, V domains shown, Crude Fab from E. coli; also called PD1-BM VL-D85T) VH: EVQLVESGGGLVQPGGSLRLSCAASGFVFSRYDMAWVRQTPGKGLEWVAFISGGGSNTYYPDTVKGRFTISRDNSKNTLYLQMNSLRAEDTAVYYCISPYYYAMEYWGQGTTVTVSS VL: DIQMTQSPSSISTSVGDRVTITCKASQDVDTAVAWYQQKPGKSPKLLIHWASTRHTGVPSRFSGSGSGTDFTLTLSSVQPEDLATYFCQQYSTFPWTFGGGTKLEIK |  |  |  | 0.28 | 9.4e-05 | 330000
Fab 13 (Fab, V domains shown, Crude Fab from E. coli; also called PD1-BM VL-F87Y) VH: EVQLVESGGGLVQPGGSLRLSCAASGFVFSRYDMAWVRQTPGKGLEWVAFISGGGSNTYYPDTVKGRFTISRDNSKNTLYLQMNSLRAEDTAVYYCISPYYYAMEYWGQGTTVTVSS VL: DIQMTQSPSSISTSVGDRVTITCKASQDVDTAVAWYQQKPGKSPKLLIHWASTRHTGVPSRFSGSGSGTDFTLTLSSVQPEDLADYYCQQYSTFPWTFGGGTKLEIK |  |  |  | 0.29 | 0.0001 | 350000
Fab 14 (Fab, V domains shown, Crude Fab from E. coli; also called PD1-BM VL-L104V) VH: EVQLVESGGGLVQPGGSLRLSCAASGFVFSRYDMAWVRQTPGKGLEWVAFISGGGSNTYYPDTVKGRFTISRDNSKNTLYLQMNSLRAEDTAVYYCISPYYYAMEYWGQGTTVTVSS VL: DIQMTQSPSSISTSVGDRVTITCKASQDVDTAVAWYQQKPGKSPKLLIHWASTRHTGVPSRFSGSGSGTDFTLTLSSVQPEDLADYFCQQYSTFPWTFGGGTKVEIK |  |  |  | 0.68 | 0.0002 | 300000
chimeric Fab (Fab, V domains shown, Crude murine-human chimeric Fab from E. coli TG1, made with the HCVR and LCVR of PD1#3; Only the variable domains are tied to it) VH: EVQLVESGGDLVKPGGSLKLSCAASGFVFSRYDMAWVRQTPEKRLEWVAFISGGGSNTYYPDTVKGRFTISRDNAKNTLYLQMTSLKSEDTAVYYCISPYYYAMEYWGQGTSVTVSS VL: DIVMTQSHKFISTSVGDRVSITCKASQDVDTAVAWYQQKPGQSPKLLIHWASTRHTGVPDRFTGGGSGTDFTLTLSNVQSEDLADYFCQQYSTFPWTFGGGTRLEIK |  |  |  | 0.5 | 0.00015 | 300000
